Data from patent US20230348564A1, “ANTI-CANCER PROTEINS” (UNICHEM LABORATORIES LTD, priority 2020, published 2023).

Legend:
PANC-1 = assay: Annexin-V staining (flow cytometry); format: cell-based, Human; details: 24 h
Method: The cell lines were maintained in DMEM+10% FBS (heat inactivated) at 37° C. with 5% CO2, and 95% humidity. Antibiotics Penicillin (100 U/mL) and Streptomycin (100 μg/mL) were added to the medium.
The stock solution of recombinant lectin having the amino acid sequence of SEQ ID NO. […] Doxorubicin was used as positive control and stock solution was prepared in DMSO.
Cells were counted using hemocytometer and plated in culture plates at the density of 0.4×10^6 cells/well in DMEM+10% FBS in 6-well plates. Cells were incubated overnight to allow the cell recovery and exponential growth. Following overnight incubation, cells were treated with Lectin having the amino acid sequence of SEQ ID NO. 2 in DMEM+0% FBS at concentrations ranging from 2.5 μg/mL to 80 μg/mL. Untreated cells were included as Control group for sample. Cells treated with Doxorubicin were included as Positive Control group. DMSO treated cells were included as control group for Doxorubicin. After treatment, cells were incubated for a time period of 24 h.
Following incubation, the pro-apoptotic effect was estimated using Annexin assay kit as follows: Annexin reagent contains Annexin-V+7-AAD stain, which differentially labels apoptotic cells in different phases. Four populations of cells can be determined from the flow cytometric plots as follows: • a) Upper Left (UL)—7-AAD(+)/Annexin(−) or Necrotic cells • b) Upper Right (UR)—7-AAD(+)/Annexin(+) or Late apoptotic cells • c) Lower Left (LL)—7-AAD(−)/Annexin(−) or Viable/non-apoptotic cells • d) Lower Right (LR)—7-AAD(−)/Annexin(+) or Early apoptotic cells
Cells were gently harvested into pre-labeled sterile centrifuge tubes and centrifuged at 300×g for 5-7 min. Supernatant were discarded and the pellet was resuspended in 200 μl of fresh culture medium.
100 μl of cell suspension was transferred into pre-labeled sterile centrifuge tubes.
100 μl of Annexin-V reagent was added to each tube and incubated for 30 min at RT in dark.
Cells stained for Annexin-V were then transferred into 96-well plates and acquired on flow cytometer (Guava technologies). Percentage of cells in early apoptotic, late apoptotic and necrotic phase were determined.
Fold increase in apoptotic cells (treated with Test Items) was determined as compared to Control (untreated cells).

[1] = test system: neovascularization of Matrigel plug containing FGF-2 (bFGF); assay: Matrigel plug assay (in-vivo anti-angiogenesis); set-up: species or system C57BL/6 mice; details: qdx15
Method: Healthy C57BL/6 mice were selected and grouped on the basis of body weight into […] (G1-G4, n=7). Each mouse of group G2-G4 was subcutaneously injected at right flank region with 500 μl of matrigel containing 500 ng of FGF-2 (bFGF). Whereas mice of G1 group were subcutaneously injected at right flank region with 500 μl of matrigel only. In this assay, angiogenesis-inducing compounds such as bFGF was introduced into cold liquid Matrigel which, after subcutaneous injection, solidified and permits penetration by host cells and the formation of new blood vessels (neovascularization).
Required amount of test items were taken and added to an appropriate volume of Tris Buffered Saline (TBS) to achieve the required concentrations. The dose volume given to animal was 10 mL/Kg.
Daily cage-side observations were carried out to detect any clinical signs or mortality and recorded throughout the experiment period.

[2] = test system: EA.hy926 (Human endothelial cells); assay: endothelial cell proliferation by MTT assay; format: cell-based; details: for % inhibition of FBS stimulated cell growth / Mean (MTT absorbance): 72 h
Method: The cell line used for the study was EA.hy926 (Human endothelial cells) which was procured from National Centre for Cell Science, Pune (India). The cell line was maintained in DMEM+10% FBS (heat inactivated) at 37° C. with 5% CO2, and 95% humidity. […] Untreated cells with complete medium (10% FBS) served as complete medium control, cells with sera free medium served as SFM control and the cells treated with Paclitaxel served as positive control.
The percentage cytotoxicity corresponding to each treatment was calculated.

B1: SEQ ID NO. 2: recombinant lectin; variant of the S. rolfsii lectin amino acid sequence (reported as Rec-2 in WO 2010/095143) (protein)
chain: TYKITVRVYQTNPDAFFHPVEKTVWKYANGGTWTITDDQHVLTMGGSGTSGTLRFHADNGESFTATFGVHNYKRWCDIVTNLAADETGMVINQQYYSQKNREEARERQLSNYQVKNAKGRNFQIVYTEAEGNDLHANLIIG
modifications: In vitro synthesis
PANC-1; 5 μg/mL
  % Population of cells, UL Annex− 7AAD+ Necrotic: 15.5%
  % Population of cells, UR Annex+ 7AAD+ Late apoptotic: 2.8%
  Fold increase (wrt control), LR Annex+ 7-AAD−: 4.0 fold
  Fold increase (wrt control), UL Annex− 7-AAD+: 1.5 fold
  Fold increase (wrt control), UR Annex+ 7-AAD+: 7.0 fold
PANC-1; 10 μg/mL
  % Population of cells, LL Annex− 7AAD− Viable: 78.7%
  % Population of cells, LR Annex+ 7AAD− Early apoptotic: 0.0%
  % Population of cells, UL Annex− 7AAD+ Necrotic: 20.8%
  % Population of cells, UR Annex+ 7AAD+ Late apoptotic: 0.4%
  Fold increase (wrt control), UL Annex− 7-AAD+: 2.0 fold
  Fold increase (wrt control), UR Annex+ 7-AAD+: 1.0 fold
PANC-1; 20 μg/mL
  % Population of cells, LL Annex− 7AAD− Viable: 71.5%
  % Population of cells, LR Annex+ 7AAD− Early apoptotic: 0.0%
  % Population of cells, UL Annex− 7AAD+ Necrotic: 28.1%
  % Population of cells, UR Annex+ 7AAD+ Late apoptotic: 0.4%
  Fold increase (wrt control), UL Annex− 7-AAD+: 2.7 fold
  Fold increase (wrt control), UR Annex+ 7-AAD+: 1.0 fold
PANC-1; 80 μg/mL
  % Population of cells, LL Annex− 7AAD− Viable: 72.8%
  % Population of cells, LR Annex+ 7AAD− Early apoptotic: 0.0%
  % Population of cells, UL Annex− 7AAD+ Necrotic: 26.7%
  % Population of cells, UR Annex+ 7AAD+ Late apoptotic: 0.5%
  Fold increase (wrt control), UL Annex− 7-AAD+: 2.6 fold
  Fold increase (wrt control), UR Annex+ 7-AAD+: 1.3 fold
[1]; 10 mg/Kg, i.p.
  neovascularization (H&E histology), in words: marginally reduced
[1]; G4, 10 mg/Kg, i.p.
  Hemoglobin Content in the Matrigel Plug Section, Mean: 41.10
  reduction in hemoglobin content in homogenate of Matrigel plug compared to positive control: 23.6%
[1]; G4, 10 mg/Kg
  Histological Observation, Fat cell Infiltration, Mean: 1.57
  Histological Observation, Fibroblast Infiltration, Mean: 3.29
  Histological Observation, MN cell Infiltration, Mean: 2.71
  Histological Observation, Neovascularization, Mean: 2.43
[2]; 2.5 μg/mL
  % inhibition of FBS stimulated cell growth: −9.83%
  Mean (MTT absorbance): 1.761
[2]; 5 μg/mL
  % inhibition of FBS stimulated cell growth: −12.16%
  Mean (MTT absorbance): 1.799
[2]; 10 μg/mL
  % inhibition of FBS stimulated cell growth: −16.59%
  Mean (MTT absorbance): 1.870
[2]; 20 μg/mL to 100 μg/mL
  inhibition of endothelial cell proliferation as compared to control: 15.51% to 58.53%
[2]; 20 μg/mL
  % inhibition of FBS stimulated cell growth: 15.51%
  Mean (MTT absorbance): 1.355
[2]; 40 μg/mL
  % inhibition of FBS stimulated cell growth: 29.22%
  Mean (MTT absorbance): 1.135
[2]; 80 μg/mL
  % inhibition of FBS stimulated cell growth: 56.50%
  Mean (MTT absorbance): 0.698
[2]; 100 μg/mL
  % inhibition of FBS stimulated cell growth: 58.53%
  Mean (MTT absorbance): 0.665
